# From patent US20230139700A1 (BIO THERA SOLUTIONS, published 2023)
# T1: human OX40 on cells (human, UniProt P43489 29-277)
# T1 construct: whole, on cells; the cell is named under assay; also called hOX40; Jurkat-hOX40 cells
# T1 sequence (looked up): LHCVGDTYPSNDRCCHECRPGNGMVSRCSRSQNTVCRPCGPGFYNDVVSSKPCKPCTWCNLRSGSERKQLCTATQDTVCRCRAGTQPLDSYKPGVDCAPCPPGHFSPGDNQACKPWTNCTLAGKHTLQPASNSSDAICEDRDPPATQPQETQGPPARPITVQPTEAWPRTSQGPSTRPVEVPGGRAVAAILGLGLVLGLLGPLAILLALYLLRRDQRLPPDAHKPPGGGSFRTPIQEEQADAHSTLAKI
# T2: hOX40-FC (human, UniProt P43489 29-216)
# T2 construct: range 1-216; Made in HEK293; The stated range 1-216 starts at residue 1, so it holds the signal peptide of the entry; also called human OX40 extracellular region fused to human IgG1-Fc; not shown: human IgG1-Fc, UniProt P01857, residues 104 to 330
# T2 sequence (looked up): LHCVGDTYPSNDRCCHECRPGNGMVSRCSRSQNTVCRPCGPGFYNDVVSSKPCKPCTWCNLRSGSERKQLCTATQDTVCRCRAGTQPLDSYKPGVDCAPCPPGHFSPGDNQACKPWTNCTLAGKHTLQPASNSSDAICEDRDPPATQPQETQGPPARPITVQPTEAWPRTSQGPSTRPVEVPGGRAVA
# T3: hOX40-his (human, UniProt P43489 29-216)
# T3 construct: range 1-216; Made in HEK293; The stated range starts at residue 1 (holds the signal peptide of the entry); no cleavage site stated; not shown: his tag
# T3 sequence (looked up): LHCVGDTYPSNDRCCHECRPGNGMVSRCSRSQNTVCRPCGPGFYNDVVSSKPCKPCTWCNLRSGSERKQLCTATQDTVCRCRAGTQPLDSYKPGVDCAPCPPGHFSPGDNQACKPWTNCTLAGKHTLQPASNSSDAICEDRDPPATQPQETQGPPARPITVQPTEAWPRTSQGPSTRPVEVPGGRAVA
# B1: Antibody M (antibody, human IgG1, kappa, V domains shown)
# VH: QVQLVESGGGVVQPGESLRLSCAASGFTFSSYGMHWVRQAPGKGLEWVAVIWEDGSNQYYADSVKGRFTISRDNSKNTLYLQMNSLRAEDTAVYYCAKDNQDTSPDVGIDYWGQGTLVTVSS
# VL: DIQMTQSPSSLSASVGDRVTITCRASQNISPFLNWYQQKPGKAPKLLIYAAVGLQSGVPSRFSGSGSGTDFTLTISSLQPEDFATYYCQQYTDYPLTFGGGTKVEIKR
# notes: also called antibody No. 12; anti-OX40 antibody (antibody M)
# B2: Antibody-A6-1k (antibody, human IgG1, kappa, V domains shown)
# VH: QVQLQRSGGGLVQPGGSLRLSCAASGFTFSSYGMTWVRQAPGKGLEWVSAISNSGGSTYYADSVKGRFTISRDNSKNTLYLQMNSLRAEDTAVYYCAKDGPYFDYWGQGTLVTVSS
# VL: DIQMTQSPSTLSASVGDRVTITCRVSQGIGDDLGWYQQKPGKAPKLLIYKASNLESGVPSRFSGSGSGTDFSLTISSLQPEDFATYFCQQAHSFPPTFGGGTKLEIKR
# notes: also called Antibody-A6-lk; antibody No. 7
# B3: Antibody-A2 (antibody, human IgG1, kappa, V domains shown)
# VH: QVQLVESGGGLIQPGGSLRLSCAASGFTVSSNYMSWVRQAPGEGLEWIATIYYGGSTYYNPSLKSRVTISADMSKNQFSLKLSSMTAADTAVYYCARVVVPGYFDLWGRGTLVTVSS
# VL: SSELTQDPAVSVALGQTVSITCQGDSLRSYYASWYQQKPGQAPVPVIYGKNNRPSGIPDRFSGSSSGNTASLTITGAQAEDEADYYCHSRDSSGKYVFGVGTKLTVLR
# notes: also called antibody No. 11
# B4: Antibody-M5-5k (antibody, human IgG1, kappa, V domains shown)
# VH: QVQLVESGGGLIQPGGSLRLSCTASGFTFSTYAMSWVRQAPGKGLEWVSAISGTGDWASYADSVKGRFTTSRDNSRNTLYLQMNNLRDEDTAIYYCAKSSSTVATDFDYGMDVWGQGTLVTVSS
# VL: ETTLTQSPSTLSASVGDRVTITCRASEEIGSWLAWYQQTPGKAPKRLIYEASSLQSGVPSRFSGSGSGTDFTLTISSLQPEDFATYYCQQYGSYPPTFGQGTKVEIKR
# notes: also called antibody No. 8
# B5: Antibody-M5-7k (antibody, human IgG1, kappa, V domains shown)
# VH: QVQLVESGGGLIQPGGSLRLSCTASGFTFSTYAMSWVRQAPGKGLEWVSAISGTGDWASYADSVKGRFTTSRDNSRNTLYLQMNNLRDEDTAIYYCAKSSSTVATDFDYGMDVWGQGTLVTVSS
# VL: DIVMTQSPSTLSASVGDRVTVTCRASEDIGRWLAWYQQKPGKAPKRLIYAASSLQSGVPSRFSGSGSGTEFTLTISSLQPEDFATYYCQQYYNYPPTFGQGTKVEIKR
# notes: also called antibody No. 9
# B6: Antibody-X35-6L (antibody, human IgG1, kappa, V domains shown)
# VH: EVQLVESGGGLVQPGRSLRLSCAASGFTFDDYAMHWVRQAPGRGLEWVSGIGGSGGSTYYADSVKGRFTISRDNSKNTLYLQMNGLGAEDTAVYYCAKDRGYGDYYWYFDLWGRGTLVTVSS
# VL: SSELTQPASVSGSPGQSITISCTGTSSDVGGYNYVSWYQQHPGKAPKLMIYDVSNRPSGVSNRFSGSKSGNTASLTISGLQAEDEADYYCSSYTTSSTLVFGGGTKVTVLR
# notes: also called antibody No. 2
# B7: Antibody-F23-7k (antibody, human IgG1, kappa, V domains shown)
# VH: QVQLEESGGGVVQPGESLRLSCAASGFTFSSYGMHWVRQAPGKGLEWVAVISYDGSNQYYADSVKGRFTISRDNSKNTLYLQMNSLRAEDTAVYYCAKDNQDSSPDVGIDYWGQGTLVTVSS
# VL: DIQMTQSPSSLSASVGDRVTITCRASQSISSYLNWYQQKPGKAPKLLMYAASSLQSGVPSRFSGSGSGTDFTLTISSLQPEDFATYYCLQIDSYPLTFGGGTKVEIKR
# notes: also called antibody No. 5
# B8: Antibody-FE-16H (antibody, human IgG1, kappa, V domains shown)
# VH: QVQLVESGGGLVQPGGSLRLSCAASGFTFSSYAMSWVRQAPGKGLEWVSAISGSGGSTYYADSVKGRFTISRDNSKNSLYLQMNSLRAEDTAVYYCARGDSSSWFIFQDWGQGTLVTVSS
# VL: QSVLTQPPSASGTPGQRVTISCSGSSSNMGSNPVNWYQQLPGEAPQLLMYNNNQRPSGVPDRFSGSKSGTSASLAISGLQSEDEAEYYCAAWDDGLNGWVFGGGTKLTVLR
# notes: also called antibody No. 10
# Target: T1, human OX40 on cells
# Assay: flow cytometry (MFI) on Jurkat cells overexpressing OX40, antibody titration; the unit nM comes from the legend paragraph 95
# Description: (§1) Table 10 illustrates the CDRs of eight full antibodies containing these amino acid mutations, and the rest of the sequences are the same as those of antibody-F23-32K. […] The sequences of the anti-OX40 antibody (antibody M) are shown in Table 12; wherein, the expression cells used for the antibodies above (including antibody M) are CHO-S cells, and the method for preparing the antibody M-KF is as follows: the antibody M was identical to the antibody M-KF in terms of amino acid sequence and was expressed by the CHO cell line in which the fut8 gene was knocked out (the content of fucose in antibody M-KF was about 0%).
row,EC50 [nM],Binder
1,1.2,B1

# Target: T1, human OX40 on cells
# Assay: flow cytometry (MFI) on Jurkat cells overexpressing OX40, antibody titration
# Description: as §1
row,EC50 (read off the curve) [nM],Binder
1,~1,B1

# Target: T2, hOX40-FC
# Assay: BLI (ForteBio), biotinylated antibody on SA sensor, OX40-Fc 50 nM bivalent, 1:1 model
# Description: The ForteBio affinity assay was conducted according to the existing conventional method (Estep, P et al., MAbs, 2013, 5(2): 270-8). The brief process is as follows: the sensor was equilibrated offline in an assay buffer (such as PBS) for 20 min and then subjected to online test for 60 s to establish a signal baseline. The purified antibodies obtained as described above were each loaded online onto a corresponding sensor (ForteBio), and finally the ForteBio affinity assay was conducted. The biotinylated candidate antibodies were adsorbed with the SA sensor, and binding and dissociation of hOX40-FC were each detected for about 5 min. The results are shown in Table 4, and N.D indicates not detected in Table 4. Finally, kinetic analysis was performed for all by using a 1:1 binding model.
row,Kd [nM],Binder
1,4,B2
2,9,B3
3,2,B4
4,0.4,B5
5,< 0.1,B6
6,2,B7
7,3,B8

# Target: T3, hOX40-his
# Assay: BIACORE, antibody on the probe, 20 nM OX40-his
# Description: as §1
Kd [nM],fold higher affinity than 11D4 [fold],fold higher affinity than OX40mAb24 [fold],fold increase of affinity (against antibody-F23-32K) [fold],koff [s⁻¹],kon [M⁻¹ s⁻¹],Binder
0.16,~9,~21,~70,9.77e-05,610000,B1

# Target: T1, human OX40 on cells
# Assay: cell-based or functional assay
row,"NFκB reporter in Jurkat-hOX40-NFκB-2 cells with Raji cells, activation peak against 11D4 [fold]",Binder
1,~2.5,B1
